US20160168251A1

Biological target: human NPRA on HEK293 cells, without added ligand (human) (UniProt P16066)
Experiment: cell-based or functional assay

human NPRA on HEK293 cells, without added ligand (human), sequence (P16066 33-1061 limits assumed): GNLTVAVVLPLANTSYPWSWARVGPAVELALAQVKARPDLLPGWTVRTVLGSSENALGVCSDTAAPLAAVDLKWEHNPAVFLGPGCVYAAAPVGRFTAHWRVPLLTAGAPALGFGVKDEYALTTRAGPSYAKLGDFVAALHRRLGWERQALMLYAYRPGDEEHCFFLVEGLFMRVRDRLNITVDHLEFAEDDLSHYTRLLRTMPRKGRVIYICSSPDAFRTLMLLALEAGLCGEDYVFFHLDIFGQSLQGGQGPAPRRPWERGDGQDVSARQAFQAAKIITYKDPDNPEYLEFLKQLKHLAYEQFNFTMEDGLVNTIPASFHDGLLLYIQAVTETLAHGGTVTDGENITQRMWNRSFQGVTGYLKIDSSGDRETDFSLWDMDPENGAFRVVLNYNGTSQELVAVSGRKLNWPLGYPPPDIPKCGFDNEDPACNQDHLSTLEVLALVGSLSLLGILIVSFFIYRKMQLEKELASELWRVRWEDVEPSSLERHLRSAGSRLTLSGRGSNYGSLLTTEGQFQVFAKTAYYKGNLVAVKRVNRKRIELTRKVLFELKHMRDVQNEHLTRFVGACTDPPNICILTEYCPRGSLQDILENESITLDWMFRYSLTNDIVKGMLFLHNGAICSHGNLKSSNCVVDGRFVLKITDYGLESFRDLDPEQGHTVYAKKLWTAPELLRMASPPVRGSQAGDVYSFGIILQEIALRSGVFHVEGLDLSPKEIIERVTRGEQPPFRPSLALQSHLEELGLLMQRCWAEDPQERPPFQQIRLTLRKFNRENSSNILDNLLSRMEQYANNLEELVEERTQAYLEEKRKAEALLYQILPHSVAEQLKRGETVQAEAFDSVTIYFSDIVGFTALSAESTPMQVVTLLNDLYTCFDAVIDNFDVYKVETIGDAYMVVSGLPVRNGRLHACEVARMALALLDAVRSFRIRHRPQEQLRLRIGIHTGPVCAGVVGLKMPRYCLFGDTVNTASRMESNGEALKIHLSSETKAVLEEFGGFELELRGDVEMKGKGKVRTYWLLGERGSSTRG

B-type natriuretic peptide (BNP), free (from UniProt P16860 27-134) (ligand)
EC50 of BNP, cGMP production in HEK NPRA cells, in presence of negative control Fab: 90 nM
